The chains are these.
B3: Nogo-B receptor (NgBR), endogenous, on human umbilical vein endothelial cells (HUVEC) (receptor)
chain: SWLRVRFGTWNWIWRRCCRAASAAVLAPLGFTLRKPPAVGRNRRHHRHPRGGSCLAAAHHRMRWRADGRSLEKLPVHMGLVITEVEQEPSFSDIASLVVWCMAVGISYISVYDHQGIFKRNNSRLMDEILKQQQELLGLDCSKYSPEFANSNDKDDQVLNCHLAVKVLSPEDGKADIVRAAQDFCQLVAQKQKRPTDLDVDTLASLLSSNGCPDPDLVLKFGPVDSTLGFLPWHIRLTEIVSLPSHLNISYEDFFSALRQYAACEQRLGK
notes: The assays were done on untransfected HUVEC; also called native HUVEC; endogenous NgBR
B4: human Nogo-B receptor (NgBR), expressed from the cloned cDNA on transfected COS-7 or CHO cells (receptor)
chain: SWLRVRFGTWNWIWRRCCRAASAAVLAPLGFTLRKPPAVGRNRRHHRHPRGGSCLAAAHHRMRWRADGRSLEKLPVHMGLVITEVEQEPSFSDIASLVVWCMAVGISYISVYDHQGIFKRNNSRLMDEILKQQQELLGLDCSKYSPEFANSNDKDDQVLNCHLAVKVLSPEDGKADIVRAAQDFCQLVAQKQKRPTDLDVDTLASLLSSNGCPDPDLVLKFGPVDSTLGFLPWHIRLTEIVSLPSHLNISYEDFFSALRQYAACEQRLGK
notes: also called Am-Nogo receptor; Am-NgR
B6: AP-Am-Nogo-B (alkaline phosphatase fusion protein with residues 1-200 at the amino terminus of human Nogo-B) (ligand, UniProt Q9NQC3-2 1-200, looked up)
chain: MEDLDQSPLVSSSDSPPRPQPAFKYQFVREPEDEEEEEEEEEEDEDEDLEELEVLERKPAAGLSAAPVPTAPAAGAPLMDFGNDFVPPAPRGPLPAAPPVAPERQPSWDPSPVSSTVPAPSPLSAAAVSPSKLPEDDEPPARPPPPPPASVSPQAEPVWTPPAPAPAAPPSTPAAPKRRGSSGSVVVDLLYWRDIKKTGV
notes: range 1-200; also called full-length AP-Am-Nogo-B; APNogo200; not shown: placental alkaline phosphatase coding region of vector pcAP-5

The target in assay [1] is B4. Briefly: surface binding of AP proteins to CHO cells expressing NgBR (FIG. 14).
For assay [2], the target named is B3. Briefly: surface binding of AP proteins to HUVEC (FIG. 15).
For assay [3], the target named is B6. Briefly: blocking of AP-Am-Nogo-B binding to endothelial cells (FIG. 34).
Assay [4] deals with T1, AP (recombinant alkaline phosphatase alone) (UniProt P05187 23-511).
T1 construct: Control protein without a Nogo part; also called AP alone
T1 sequence (P05187 23-511): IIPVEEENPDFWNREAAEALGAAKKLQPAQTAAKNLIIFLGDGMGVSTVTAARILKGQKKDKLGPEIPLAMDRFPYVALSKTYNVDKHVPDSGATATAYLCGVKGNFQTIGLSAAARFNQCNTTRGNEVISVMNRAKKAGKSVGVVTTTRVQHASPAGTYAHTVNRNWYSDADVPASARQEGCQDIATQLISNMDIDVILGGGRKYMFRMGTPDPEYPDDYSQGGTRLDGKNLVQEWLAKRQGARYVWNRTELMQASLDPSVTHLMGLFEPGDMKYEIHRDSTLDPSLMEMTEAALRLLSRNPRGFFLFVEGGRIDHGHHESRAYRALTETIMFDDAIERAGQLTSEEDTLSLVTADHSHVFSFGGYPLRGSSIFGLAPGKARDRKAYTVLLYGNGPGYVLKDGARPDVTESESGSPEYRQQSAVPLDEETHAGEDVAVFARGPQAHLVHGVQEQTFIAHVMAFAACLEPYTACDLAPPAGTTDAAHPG
Put plainly: surface binding of AP proteins to HUVEC (FIG. 12).

Assay [5] has as its target T1, AP (recombinant alkaline phosphatase …). Briefly: AP-fusion binding to COS cells transfected with the NgBR cDNA, AP staining (FIG. 6). The procedure:
To detect AP-Am-Nogo-B binding, cultures were washed with Hanks' balanced salt solution (HBSS) containing 20 mM HEPES, pH 7.5, and 1 mg/mL BSA (HBH). The plates were then incubated with AP-Am-Nogo-B in DMEM containing 20 mM Hepes, pH 7.5, and 1 mg/mL BSA for 2 hours at 4° C. The bound AP-Am-Nogo-B was detected by using the Blue Substrate kit (Vector Laboratories). The blue staining was examined by using the ODYSSEY Infrared Imaging System (Li-Cor, Lincoln, Nebr.) and confirmed by microscopy. Alternatively, the bound AP-Am-Nogo-B was extracted with Triton X-100, and AP activity was colorimetrically quantified by using p-nitrophenyl phosphate (Sigma) as substrate after heat inactivation of endogenous AP. Non-specific binding was determined by measuring binding in the presence of a 100-fold molar excess of recombinant Am-Nogo-B lacking the AP fusion protein. Specific binding was determined by subtracting the non-specific binding from total binding. For determination of apparent Kd, the binding of AP-Am-Nogo-B was measured in triplicate as described above and the Kd value was quantified by using the Scatchard plot program of GraphPad PRISM (one-site binding, linear regression) using the ratio of bound ligand to free ligand as the y axis and bound ligand (pM) as the x axis. […]

For assay [6], the target named is B4. Briefly: surface binding of AP proteins to CHO cells expressing NgBR (FIG. 11).
Assay [7] concerns the target B3. Put plainly: surface binding of AP proteins to HUVEC (FIG. 12).
In assay [8] the target is B4. Briefly: AP-fusion binding to CHO cells transiently transfected with NgBR cDNA, Scatchard plot (FIG. 7). On the procedure: (§1) To detect AP-Am-Nogo-B binding, cultures were washed with Hanks' balanced salt solution (HBSS) containing 20 mM HEPES, pH 7.5, and 1 mg/mL BSA (HBH). The plates were then incubated with AP-Am-Nogo-B in DMEM containing 20 mM Hepes, pH 7.5, and 1 mg/mL BSA for 2 hours at 4° C. The bound AP-Am-Nogo-B was detected by using the Blue Substrate kit (Vector Laboratories). The blue staining was examined by using the ODYSSEY Infrared Imaging System (Li-Cor, Lincoln, Nebr.) and confirmed by microscopy. Alternatively, the bound AP-Am-Nogo-B was extracted with Triton X-100, and AP activity was colorimetrically quantified by using p-nitrophenyl phosphate (Sigma) as substrate after heat inactivation of endogenous AP. Non-specific binding was determined by measuring binding in the presence of a 100-fold molar excess of recombinant Am-Nogo-B lacking the AP fusion protein. Specific binding was determined by subtracting the non-specific binding from total binding. For determination of apparent Kd, the binding of AP-Am-Nogo-B was measured in triplicate as described above and the Kd value was quantified by using the Scatchard plot program of GraphPad PRISM (one-site binding, linear regression) using the ratio of bound ligand to free ligand as the y axis and bound ligand (pM) as the x axis.

The target in assay [9] is B3. Briefly: AP-fusion binding to HUVEC at 4 C, AP activity read-out, Scatchard plot (FIGS. 4 and 5). The procedure: as §1

B1: AP-Nogo-A (59-172) (ligand, UniProt Q9NQC3 59-172, looked up)
chain: PAAGLSAAPVPTAPAAGAPLMDFGNDFVPPAPRGPLPAAPPVAPERQPSWDPSPVSSTVPAPSPLSAAAVSPSKLPEDDEPPARPPPPPPASVSPQAEPVWTPPAPAPAAPPST
notes: also called AP-Am-Nogo-A domains; not shown: alkaline phosphatase part of the AP fusion
As for B1, the binding result in assay [1] and in assay [2] was “no binding” each time.

B2: mFc-ecto (Fc fusion of amino acids 52-116 of NgBR, HA- and heptahistidine-tagged) (Fc fusion)
chain: LGFTLRKPPAVGRNRRHHRHPRGGSCLAAAHHRMRWRADGRSLEKLPVHMGLVITEVEQEPSFSD
notes: Purified from conditioned media of mammalian cells; also called mFc fusion with the NgBR domain; mFc-NgBR-ectodomain; not shown: mFc, the Fc fragment of IgG; HA tag; heptahistidine tag
Take B2: the binding result in assay [3] is recorded as “binds”.
On to B3, for which, in assay [4], the binding result is “no binding”.
On to B4, for which, in assay [5], the binding result was “no binding”.

B5: AP-Nogo-B (amino acids 1-180) (ligand, UniProt Q9NQC3-2 1-180, looked up)
chain: MEDLDQSPLVSSSDSPPRPQPAFKYQFVREPEDEEEEEEEEEEDEDEDLEELEVLERKPAAGLSAAPVPTAPAAGAPLMDFGNDFVPPAPRGPLPAAPPVAPERQPSWDPSPVSSTVPAPSPLSAAAVSPSKLPEDDEPPARPPPPPPASVSPQAEPVWTPPAPAPAAPPSTPAAPKRRG
notes: range 1-180; Construction not described; also called AP-Nogo-B (1-180); not shown: alkaline phosphatase part of the AP fusion
Consider B5, for which the binding result in assay [6] and in assay [7] was “no binding” each time.
With B6, the Kd – broadly, the free concentration of one partner at which half of the binding sites on the other are occupied at equilibrium, for simple one-to-one binding – was found to be 2.74 nM in assay [8] and 9.7 nM in [9].

(Values after patent US20090305971A1 (YALE UNIVERSITY, published 2009).)
